{"source": "patent KR20220012810A", "about": "(dated 2022)", "binders": {"B1": {"name": "No. 139 항체 (Full IgG) (antibody, V domains shown)", "VH": "QITLKESGPTLVKPTQTLTLTCSFSGFSLSTSGVGVGWIRQPPGKALEWLALIDWDDNKYHTTSLKTRLTISKDTSKNQVVLTMTNMDPVDTATYYCARIPGFLRYRNRYYYYGMDVWGQGTTVTVSS", "VL": "ELVLTQPPSVSAAPGQKVTISCSGSSSNIGNNYVSWYQQLPGTAPKLLIYDNNKRPSGIPDRFSGSKSGTSATLGITGLQTGDEADYYCGTWDSSLSAGVFGGGTELTVL"}}, "key": {"HCoV-HKU1 S1": {"target": "T1, HCoV-HKU1 S1 (HCoV-HKU1, UniProt Q5MQD0 13-760)", "T1 construct": "domain: S1", "T1 sequence": "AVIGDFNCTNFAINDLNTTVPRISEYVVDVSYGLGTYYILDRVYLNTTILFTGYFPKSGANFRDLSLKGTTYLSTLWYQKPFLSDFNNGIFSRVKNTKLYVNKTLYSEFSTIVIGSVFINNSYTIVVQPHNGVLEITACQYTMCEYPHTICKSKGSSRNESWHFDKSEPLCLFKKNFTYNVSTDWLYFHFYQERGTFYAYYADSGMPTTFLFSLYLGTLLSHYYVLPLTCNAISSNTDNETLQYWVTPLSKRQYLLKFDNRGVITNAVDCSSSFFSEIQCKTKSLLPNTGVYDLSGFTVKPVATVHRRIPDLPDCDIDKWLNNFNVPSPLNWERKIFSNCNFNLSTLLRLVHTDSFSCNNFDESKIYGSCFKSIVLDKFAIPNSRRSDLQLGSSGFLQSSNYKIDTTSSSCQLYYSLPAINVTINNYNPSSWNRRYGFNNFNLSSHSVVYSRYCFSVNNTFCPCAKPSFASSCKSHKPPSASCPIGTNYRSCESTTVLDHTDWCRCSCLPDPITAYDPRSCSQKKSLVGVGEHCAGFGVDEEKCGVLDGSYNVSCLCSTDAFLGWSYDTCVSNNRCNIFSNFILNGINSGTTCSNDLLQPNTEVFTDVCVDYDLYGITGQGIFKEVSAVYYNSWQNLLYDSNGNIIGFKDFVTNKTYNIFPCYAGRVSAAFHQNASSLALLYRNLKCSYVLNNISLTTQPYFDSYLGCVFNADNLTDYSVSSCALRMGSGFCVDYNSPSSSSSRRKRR", "test": "BLI (Octet)"}, "MERS-CoV RBD": {"target": "T2, MERS-CoV RBD (MERS-CoV, UniProt K9N5Q8 367-606)", "T2 sequence": "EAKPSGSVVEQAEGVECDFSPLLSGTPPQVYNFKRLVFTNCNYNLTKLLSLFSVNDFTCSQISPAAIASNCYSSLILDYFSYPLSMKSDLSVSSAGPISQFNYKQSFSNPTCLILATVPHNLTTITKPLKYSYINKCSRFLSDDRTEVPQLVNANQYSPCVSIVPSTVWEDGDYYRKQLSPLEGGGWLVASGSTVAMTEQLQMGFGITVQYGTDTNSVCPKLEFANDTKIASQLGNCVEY", "test": "BLI (Octet)"}, "SARS-CoV S1": {"target": "SARS-CoV S1 (SARS-CoV, UniProt P59594 14-667)", "test": "BLI (Octet)"}, "[1]": {"target": "SARS-CoV-2 spike D614 (pseudovirus) (SARS-CoV-2, UniProt P0DTC2 14-1273)", "test": "cell-based or functional assay"}, "[2]": {"target": "SARS-CoV-2 spike 'D614 or G614' (pseudovirus) (SARS-CoV-2, UniProt P0DTC2 14-1273)", "test": "cell-based or functional assay"}}}
{"binder": "B1", "values": [{"measurement": "binding result", "setting": "HCoV-HKU1 S1", "result": "no binding"}, {"measurement": "binding result", "setting": "MERS-CoV RBD", "result": "no binding"}, {"measurement": "binding result", "setting": "SARS-CoV S1", "result": "no binding"}, {"measurement": "IC50, pseudovirus neutralisation", "setting": "[1]", "result": 0.378, "unit": "ng/mL"}, {"measurement": "IC50, pseudovirus neutralisation", "setting": "[2]", "result": 0.35, "unit": "ng/mL"}]}
